Tests used:
[1] = molecular target: CH505 transmitted/founder (T/F) Env gp140 (HIV-1 subtype C, CH505 (703010505) …, strain); assay: SPR
[2] = molecular target: heterologous T/F Env C.1086 (HIV-1 subtype C, isolate 1086 (T/F), UniProt C6G099, strain); assay: ELISA

Row | Binder | binding result [1] | binding result [2]
1 | inferred intermediate antibody I1 (antibody, V domains shown) V domain 1: QVQLQESGPGVVKSSETLSLTCTVSGGSMGGTYWSWLRLSPGKGLEWIGYIFHTGHTNYSPSLKGRVSISVDTSEDQFSLRLRSVTAADTAVYFCASLPRGQLVNAYFRNWGRGTLVSVTA V domain 2: SYELTQPPSVSVSPGQTATITCSGDKVASKNVCWYQVKPGQSPEVVMYENYKRPSGIPDRFSGSKSGSTATLTIRGTQATDEADYYCQVWDSFSTFVFGSGTQVTV | binds | –
2 | CH103 (full-length IgG1 recombinant mAb) (antibody, V domains shown) V domain 1: QVQLQESGPGVVKSSETLSLTCTVSGGSMGGTYWSWLRLSPGKGLEWIGYIFHTGETNYSPSLKGRVSISVDTSEDQFSLRLRSVTAADTAVYFCASLPRGQLVNAYFRNWGRGSLVSVTA V domain 2: SYELTQPPSVSVSPGQTATITCSGASTNVCWYQVKPGQSPEVVIFENYKRPSGIPDRFSGSKSGSTATLTIRGTQAIDEADYYCQVWDSFSTFVFGSGTQVTV | binds | –
3 | CH104 (full-length IgG1 recombinant mAb) (antibody, V domains shown) V domain 1: QVQLQESGPGVVKSSETLSLTCTVSGGSMGGTYWSWLRLSPGKGLEWIGYIFHTGHTNYNPSLEGRVSISVDTSEDQFSLRLRSVTAADTAVYFCASLPRGQLVNAYFRNWGRGTLVSVTA V domain 2: SYELTQPPSVSVSPGQTATITCSGDKVASKNVCWYQVKPGQSPEVVMYENYKRASGIPDRFSGSKSGSTATLTIRGTQATDEADYYCQVWDSFSTFVFGSGTQVTV | binds | –
4 | CH103 unmutated common ancestor (UCA) mAb (antibody, V domains shown) VH: QVQLQESGPGLVKPSETLSLTCTVSGGSISSYYWSWIRQPPGKGLEWIGYIYYSGSTNYNPSLKSRVTISVDTSKNQFSLKLSSVTAADTAVYYCASLPRGQLVNAYFDYWGQGTLVTVSS VL: not shown | – | no binding

— publication PMC3637846 (Nature, 2013)
